Data taken from PMC1179735.

T1: indolicidin (Bos taurus (bovine; synthetic peptide), UniProt P33046)
T1 chain: ILPWKWPWWPWRR


Target: T1, indolicidin
Assay: SPR

Binder	Kd
CATAATATTC (ssDNA) [ss[AT]]	2.09 mM
CGCGGCGGCT (ssDNA) [ss[GC] (ss[CG] in Table 2)]	1.53 mM
CAGAGAGAGT (ssDNA) [ss[AG]]	2.44 mM
CGTGTGTGTC (ssDNA) [ss[GT]]	0.115 mM
